Test results as given in paper PMC10322149.

T1: Homer3, Q9NSC5
T1 chain: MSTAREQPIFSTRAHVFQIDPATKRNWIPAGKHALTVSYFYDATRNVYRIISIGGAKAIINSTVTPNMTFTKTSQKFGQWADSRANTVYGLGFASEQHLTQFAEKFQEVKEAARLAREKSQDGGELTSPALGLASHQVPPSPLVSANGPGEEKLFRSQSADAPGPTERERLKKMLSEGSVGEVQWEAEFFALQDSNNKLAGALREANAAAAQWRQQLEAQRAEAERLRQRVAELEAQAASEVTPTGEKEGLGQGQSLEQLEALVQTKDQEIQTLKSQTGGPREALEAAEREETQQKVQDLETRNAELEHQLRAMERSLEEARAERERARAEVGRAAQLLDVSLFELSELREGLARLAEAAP

T2: Pi-Homer3 (Homer3 phosphorylated by CaMKIIα), Q9NSC5
T2 chain: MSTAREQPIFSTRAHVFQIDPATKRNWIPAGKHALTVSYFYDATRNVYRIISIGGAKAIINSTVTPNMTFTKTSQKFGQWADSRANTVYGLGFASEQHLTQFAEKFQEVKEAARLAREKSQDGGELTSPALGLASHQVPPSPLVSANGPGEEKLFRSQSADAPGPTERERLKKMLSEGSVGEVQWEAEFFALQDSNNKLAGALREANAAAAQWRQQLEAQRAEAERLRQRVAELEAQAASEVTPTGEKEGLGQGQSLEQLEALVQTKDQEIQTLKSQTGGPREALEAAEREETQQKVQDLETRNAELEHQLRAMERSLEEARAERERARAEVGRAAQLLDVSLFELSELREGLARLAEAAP

B1: Homer3, Q9NSC5 1-361 (natural protein)
chain: MSTAREQPIFSTRAHVFQIDPATKRNWIPAGKHALTVSYFYDATRNVYRIISIGGAKAIINSTVTPNMTFTKTSQKFGQWADSRANTVYGLGFASEQHLTQFAEKFQEVKEAARLAREKSQDGGELTSPALGLASHQVPPSPLVSANGPGEEKLFRSQSADAPGPTERERLKKMLSEGSVGEVQWEAEFFALQDSNNKLAGALREANAAAAQWRQQLEAQRAEAERLRQRVAELEAQAASEVTPTGEKEGLGQGQSLEQLEALVQTKDQEIQTLKSQTGGPREALEAAEREETQQKVQDLETRNAELEHQLRAMERSLEEARAERERARAEVGRAAQLLDVSLFELSELREGLARLAEAAP
B2: Pi-Homer3 (Homer3 phosphorylated by CaMKIIα), Q9NSC5 1-361 (natural protein)
chain: MSTAREQPIFSTRAHVFQIDPATKRNWIPAGKHALTVSYFYDATRNVYRIISIGGAKAIINSTVTPNMTFTKTSQKFGQWADSRANTVYGLGFASEQHLTQFAEKFQEVKEAARLAREKSQDGGELTSPALGLASHQVPPSPLVSANGPGEEKLFRSQSADAPGPTERERLKKMLSEGSVGEVQWEAEFFALQDSNNKLAGALREANAAAAQWRQQLEAQRAEAERLRQRVAELEAQAASEVTPTGEKEGLGQGQSLEQLEALVQTKDQEIQTLKSQTGGPREALEAAEREETQQKVQDLETRNAELEHQLRAMERSLEEARAERERARAEVGRAAQLLDVSLFELSELREGLARLAEAAP
modifications: here or on the partner: phosphorylated by CaMKIIα at Ser residues in the central linker region (positions not given); phosphorylated by CaMKIIα at Ser residues in the central linker region (positions not given)

Legend:
Homer3, Q9NSC5 = molecular target: T1, Homer3, Q9NSC5; assay: SEC-MALS; FPLC coupled with static light scattering; Superose 12 10/300 GL; 50 mM Tris pH 8.0, 100 mM NaCl, 1 mM EDTA, 1 mM DTT; Homer3 and Pi-Homer3 at 50 μM; conditions: remark: other sources report otherwise
[1] = molecular target: T2, Pi-Homer3 (Homer3 phosphorylated by …); assay: as above; conditions: remark: other sources report otherwise

| Binder | stoichiometry N (Homer3, Q9NSC5) | stoichiometry N [1] |
| --- | --- | --- |
| B1 | 4 |  |
| B2 |  | 4 |
